Results published in patent publication US20040038883A1 (published 2004).

T1: SGK
T1 chain: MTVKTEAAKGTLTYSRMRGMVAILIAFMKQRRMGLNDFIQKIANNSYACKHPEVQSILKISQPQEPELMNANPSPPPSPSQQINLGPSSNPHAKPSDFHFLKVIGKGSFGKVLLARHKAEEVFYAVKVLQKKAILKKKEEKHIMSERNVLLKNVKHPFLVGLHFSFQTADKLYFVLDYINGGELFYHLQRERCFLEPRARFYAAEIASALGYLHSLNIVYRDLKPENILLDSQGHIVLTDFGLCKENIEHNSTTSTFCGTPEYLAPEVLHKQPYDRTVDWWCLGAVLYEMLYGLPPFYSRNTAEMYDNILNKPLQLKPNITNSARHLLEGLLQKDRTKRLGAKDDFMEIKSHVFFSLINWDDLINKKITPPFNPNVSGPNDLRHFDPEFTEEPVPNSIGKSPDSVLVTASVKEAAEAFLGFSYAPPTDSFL


How the values were obtained:
SGK = biological target: T1, SGK; test: in vitro SGK kinase activity assay, 33P-ATP, Flash Plate
Cdc2 = biological target: T2, Cdc2; test: in vitro CDC2 kinase activity assay, 33P-ATP, Flash Plate
T2 construct: Bought enzyme

[1] = biological target: T3, Akt wild-type recombinant protein (Akt1) (Homo sapiens (Human), UniProt P31749 1-480, as many as five phosphorylations seen by ESI-MS (positions not stated)); test: in vitro Akt1 kinase activity assay, biotinylated Bad-derived peptide substrate
T3 construct: also called Akt1 wild type
T3 sequence (P31749 other isoform, or with tags, fused parts or gaps limits assumed): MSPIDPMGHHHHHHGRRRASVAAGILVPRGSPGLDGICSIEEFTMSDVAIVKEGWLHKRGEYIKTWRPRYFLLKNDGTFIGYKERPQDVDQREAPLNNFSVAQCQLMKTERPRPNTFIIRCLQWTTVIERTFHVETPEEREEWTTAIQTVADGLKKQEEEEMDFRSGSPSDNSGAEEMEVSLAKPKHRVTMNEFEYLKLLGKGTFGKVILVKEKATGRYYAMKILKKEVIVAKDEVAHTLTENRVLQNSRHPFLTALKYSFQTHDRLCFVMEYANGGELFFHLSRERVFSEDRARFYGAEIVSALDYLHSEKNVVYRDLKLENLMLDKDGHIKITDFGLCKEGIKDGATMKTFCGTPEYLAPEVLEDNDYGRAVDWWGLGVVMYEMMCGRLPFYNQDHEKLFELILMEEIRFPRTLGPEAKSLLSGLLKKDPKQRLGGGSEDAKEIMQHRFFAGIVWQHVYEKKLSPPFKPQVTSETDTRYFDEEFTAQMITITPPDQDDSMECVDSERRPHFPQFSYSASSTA

Src = biological target: T4, Src; test: in vitro Src kinase activity assay, 33P-ATP, Flash Plate
T4 construct: Bought enzyme

PKA = biological target: T5, PKA; test: in vitro PKA kinase activity assay, 33P-ATP, kemptide substrate, Flash Plate
T5 construct: Bought enzyme

PKCγ = biological target: T6, PKCγ; test: in vitro PKC gamma kinase activity assay, 33P-ATP, Flash Plate
T6 construct: Bought enzyme; also called PKC gamma

PKCδ = biological target: T7, PKCδ; test: in vitro PKC delta kinase activity assay, 33P-ATP, Flash Plate
T7 construct: Bought enzyme; also called PKC delta

| Ki (SGK) | Ki (Cdc2) | Ki [1] | Ki (Src) | Ki (PKA) | Ki (PKCγ) | Ki (PKCδ) | Binder |
| --- | --- | --- | --- | --- | --- | --- | --- |
| 1 µM | > 33 µM | 1.11 µM | > 33 µM | > 34 µM | > 30 µM | > 42 µM | VELDPEFEPRARERTYSFGH [Peptide 1] |
| 12.5 µM | > 33 µM | 0.095 µM | > 33 µM | > 34 µM | > 30 µM | > 42 µM | VELDPEFEPRARERAYAFGH (Made from peptide 2 by changing Thr at position 15 to Ala) [Peptide 4] |
